Experimental data published in patent publication US8703915B2, “Mutant proteins and methods for producing them” (Heptares Therapeutics Limited, priority 2009, dated 2014).

B1: 5HT2C: wild type (parent) human 5HT2C receptor (protein, listed as Homo sapiens)
chain: MVNLRNAVHSFLVHLIGLLVWQCDISVSPVAAIVTDIFNTSDGGRFKFPDGVQNWPALSIVIIIIMTIGGNILVIMAVSMEKKLHNATNYFLMSLAIADMLVGLLVMPLSLLAILYDYVWPLPRYLCPVWISLDVLFSTASIMHLCAISLDRYVAIRNPIEHSRFNSRTKAIMKIAIVWAISIGVSVPIPVIGLRDEEKVFVNNTTCVLNDPNFVLIGSFVAFFIPLTIMVITYCLTIYVLRRQALMLLHGHTEEPPGLSLDFLKCCKRNTAEEENSANPNQDQNARRRKKKERRPRGTMQAINNERKASKVLGIVFFVFLIMWCPFFITNILSVLCEKSCNQKLMEKLLNVFVWIGYVCSGINPLVYTLFNKIYRRAFSNYLRCNYKVEKKPPVRQIPRVAATALSGRELNVNIYRHTNEPVIEKASDNEPGIEMQVENLELPVNPSSVVSERISSV
B2: L366: 5HT2C receptor mutant, residue 7.51 (L366, L in NPLVY) to alanine (protein, UniProt P28335 33-458, looked up, variant L366A)
5-hydroxytryptamine receptor …: IVTDIFNTSDGGRFKFPDGVQNWPALSIVIIIIMTIGGNILVIMAVSMEKKLHNATNYFLMSLAIADMLVGLLVMPLSLLAILYDYVWPLPRYLCPVWISLDVLFSTASIMHLCAISLDRYVAIRNPIEHSRFNSRTKAIMKIAIVWAISIGVSVPIPVIGLRDEEKVFVNNTTCVLNDPNFVLIGSFVAFFIPLTIMVITYCLTIYVLRRQALMLLHGHTEEPPGLSLDFLKCCKRNTAEEENSANPNQDQNARRRKKKERRPRGTMQAINNERKASKVLGIVFFVFLIMWCPFFITNILSVLCEKSCNQKLMEKLLNVFVWIGYVCSGINPAVYTLFNKIYRRAFSNYLRCNYKVEKKPPVRQIPRVAATALSGRELNVNIYRHTNEPVIEKASDNEPGIEMQVENLELPVNPSSVVSERISSV
B3: M4: parent human M4 muscarinic receptor (protein, UniProt P08173 1-479, looked up)
Muscarinic acetylcholine …: MANFTPVNGSSGNQSVRLVTSSSHNRYETVEMVFIATVTGSLSLVTVVGNILVMLSIKVNRQLQTVNNYFLFSLACADLIIGAFSMNLYTVYIIKGYWPLGAVVCDLWLALDYVVSNASVMNLLIISFDRYFCVTKPLTYPARRTTKMAGLMIAAAWVLSFVLWAPAILFWQFVVGKRTVPDNQCFIQFLSNPAVTFGTAIAAFYLPVVIMTVLYIHISLASRSRVHKHRPEGPKEKKAKTLAFLKSPLMKQSVKKPPPGEAAREELRNGKLEEAPPPALPPPPRPVADKDTSNESSSGSATQNTKERPATELSTTEATTPAMPAPPLQPRALNPASRWSKIQIVTKQTGNECVTAIEIVPATPAGMRPAANVARKFASIARNQVRKKRQMAARERKVTRTIFAILLAFILTWTPYNVMVLVNTFCQSCIPDTVWSIGYWLCYVNSTINPACYALCNATFKKTFRHLLLCQYRNIGTAR
B4: CRF1-WT: wild type human CRF1 receptor (protein, UniProt P34998 24-415, looked up)
Corticotropin-releasing …: SLQDQHCESLSLASNISGLQCNASVDLIGTCWPRSPAGQLVVRPCPAFFYGVRYNTTNNGYRECLANGSWAARVNYSECQEILNEEKKSKVHYHVAVIINYLGHCISLVALLVAFVLFLRLRSIRCLRNIIHWNLISAFILRNATWFVVQLTMSPEVHQSNVGWCRLVTAAYNYFHVTNFFWMFGEGCYLHTAIVLTYSTDRLRKWMFICIGWGVPFPIIVAWAIGKLYYDNEKCWFGKRPGVYTDYIYQGPMILVLLINFIFLFNIVRILMTKLRASTTSETIQYRKAVKATLVLLPLLGITYMLFFVNPGEDEVSRVVFIYFNSFLESFQGFFVSVFYCFLNSEVRSAIRKRWHRWQDKHSIRARVARAMSIPTSPTRVSFHSIKQSTAV

Assays:
5HT2C receptor [1] = assay: Thermostability of 5HT2C receptor bound to agonist SCH23390; format: physicochemical, human
Description: An alanine scan has been carried out on the 5HT2C receptor in the presence of the agonist SCH23390 in order to stabilise the agonist conformation. Similar to A2A, it appears that mutating L2.46 (L95 in 5HT2C) to alanine confers significant stability on this receptor increasing the Tm of the receptor by 5.4° C. (FIG. 7). It is notable that in addition to L95, mutating the nearby M93 (two residues away from L2.46) to alanine also confers stability to the agonist bound receptor, resulting in an increase of 2.9° C.
(§1) A2AR-(2-316) expression was carried out by using the pRG/III-hs-MBP E. coli expression vector and DH5α cells. Cells were grown at 37° C. in 2 L flasks containing 500 mL of 2×TY medium supplemented with Ampicillin (100 μg/mL) and glucose (0.2% w/v). At OD600≈0.7, IPTG and theophylline were added at final concentrations respectively of 0.5 mM and 100 μM, and the temperature was reduced to 20° C. After 22 to 24 hours, cells were harvested in aliquots of 14 mL, centrifuged for 30 min and stored at −20° C. Both 5HT2C and M4 receptors were transiently expressed in HEK293T cells using GeneJuice transfection reagent used according to the manufacturers guidelines.
(§2) 5HT2C receptor was solubilised from transiently transfected mammalian cells in 50 mM Hepes pH7.4, 100 mM KCl, 0.5% DDM (0.1% CHS/0.6% CHAPS was added to cells for SCH23390 agonist assay). Tm analysis was performed directly on the soluble lysate. The Tm was determined by incubating 108 μl of the lysate with [N^6-methyl-^3H]Mesulergine radioligand at a final concentration of 17 nM or 9 nM [^3H]SCH23390 for one hour at 4° C. The six ligand incubations are then incubated at six different temperatures from 25° C. to 55° C., for thirty minutes. Receptor bound and free radioligand were separated using a 96-well plate gel filtration assay.
(§3) 5HT2C receptor was solubilised from transiently transfected mammalian cells about 40 hours post transfection, in 50 mM Hepes pH7.4/100 mM KCl/0.5% DDM/(0.1% CHS/0.6% CHAPS was added to cells for SCH23390 agonist assay) and protease inhibitor. Cell lysates were left at 4° C. on a rotator and then cleared by centrifugation at 13,200 rpm for 20 minutes at 4° C. Thermostability analysis was performed directly on the soluble lysate. The Tm was determined by incubating 108 μl of the lysate with [N^6-methyl-^3H]Mesulergine radioligand at a final concentration of 17 nM or 9 nM [^3H]SCH23390 for one hour at 4° C. The six ligand incubations are then incubated at six different temperatures from 25° C. to 55° C., for thirty minutes. Receptor bound and free radioligand were separated using G25 Sephadex spin columns.

5HT2C receptor [2] = assay: Antagonist binding to 5HT2C NPxxY motif alanine mutants (Table 1); set-up: species or system human; Average / Average - BG: unit not given here; settings: for % of Wildtype binding / DPM1 / DPM2: antagonist Mesulergine binding; for DPM1: replicate 1; for DPM2: replicate 2; for Average - BG: average minus background; for Average: average of DPM1 and DPM2
Description: An alanine scan was carried out in a similar fashion on an adenosine A2A receptor along with the 5HT2C receptor in the presence of the antagonist Mesulergine. Both alanine scans were carried out in order to further stabilize the antagonist conformation. […] The motif in Adenosine A2A is NPFIY (SEQ ID NO: 364) and for the 5HT2C is NPLVY (SEQ ID NO: 363). Therefore mutations in this region of the receptor contain stabilising mutations specific to the agonist conformation and detrimentally effect antagonist binding.
as §3

5HT2C receptor [3] = assay: Thermostability of 5HT2C receptor bound to antagonist mesulergine; format: physicochemical, human; settings: bound to antagonist (mesulergine)
Description: as §1, §2

5HT2C receptor [4] = assay: Two point thermostability assay, SCH23390 agonist binding to 5HT2C alanine scan mutants; format: physicochemical, human
Description: An alanine scan has been carried out on the 5HT2C receptor in the presence of the agonist SCH23390 in order to stabilise the agonist conformation.
as §3

M4 muscarinic receptor = assay: Thermostability of M4 muscarinic receptor bound to antagonist NMS; format: physicochemical, human; settings: bound to antagonist NMS
Description: In order to stabilise the M4 muscarinic receptors in antagonist conformation, a systematic alanine-scan was performed to identify mutations that stabilise receptors bound to the muscarinic antagonist, NMS. […] However, L71A (three residues N-terminal of the L2.46) was identified as a stabilising mutation. This mutation increases the Tm of this receptor by about 2° C. (FIG. 8a).
as §1
Transiently transfected mammalian cells expressing M4 were harvested about 40 hours post transfection and the receptors were solubilised in 50 mM Tris pH 7.5/250 mM NaCl/1% DDM/EDTA free protease inhibitor mix for 1 hour rotating at 4° C. The solubilised lysate was then cleared by centrifugation at 13000 rpm for 15 minutes at 4° C. The solubilised receptors were then purified on Ni-NTA beads and eluted with 100 mM histidine. The eluted receptor was used in radioligand binding assay. Thermostability of M4 was measured using 25 μL of purified receptor mixed with 95 μL of 12 nM [^3H]-NMS (final concentration of 10 nM). The sample was incubated for 60 min at 4° C., then 30 min at the specified temperature and then 30 min at 4° C. Receptor bound and free radioligand were separated using a 96-well plate gel filtration assay.

CRF1 = assay: Thermostability of CRF1 bound to antagonist CP-376395, purified in DDM; format: physicochemical, human; settings: antagonist-bound state (CP-376395), purified in DDM
Description: In order to stabilise CRF1 in the antagonist conformation, a systematic alanine-scan was performed to identify mutations that stabilise receptors bound to the antagonist ligand CP-376395. Mutating I2.58 to alanine (I163A) confers significant stabilisation in CRF1, increasing the thermal stability by 3.9 (±0.5)° C. (FIG. 15).
CRF1 receptors were transiently expressed in HEK293T cells on 10 cm plates using GeneJuice transfection reagent used according to manufacturers guidelines.
Cells expressing CRF1 were harvested in PBS approximately 40 hours post-transfection and re-suspended in 950 μl Re-suspension buffer (50 mM Tris-HCl, 150 mM NaCl, 2× Complete EDTA-free Protease inhibitor cocktail (Roche), pH7.5). Cells were incubated with 120 nM CP-376395 and 30 nM [^3H]-CP-376395 at 37° C. for 2 hours before transferring to ice for 5 minutes. The receptors were solubilised by the addition of 1% DDM and incubated at 4° C. for 1 hour with gentle agitation. Insoluble material was removed by centrifugation at 16000×g for 10 minutes at 4° C. The solubilised receptors were partially purified with Ni-NTA agarose (Qiagen). Ni-NTA resin was equilibrated in Equilibration buffer (50 mM Tris-HCl, 150 mM NaCl, 2× Complete EDTA-free Protease inhibitor cocktail (Roche), 0.025% DDM, pH7.5) and 400 μl of a 50:50 resin slurry was added to each sample. Resin slurries were incubated at 4° C. for 1 hour 30 minutes with gentle agitation to bind receptors. Resin slurries were then transferred to a batch column filter plate (Chromabond) and centrifuged at 1000×g for 1 minute, discarding the flow-through. Resin was washed twice with 1 ml of Wash buffer (50 mM Tris-HCl, 150 mM NaCl, 2× Complete EDTA-free Protease inhibitor cocktail (Roche), 0.025% DDM, 20 mM Imidazole, pH7.5) and then eluted in 1 ml of Elution buffer (50 mM Tris-HCl, 150 mM NaCl, 2× Complete EDTA-free Protease inhibitor cocktail (Roche), 0.025% DDM, 100 mM histidine, 30 nM [^3H]-CP-376395, 120 nM CP-376395, pH7.5) by resuspension at 4° C. for 30 minutes. Eluted samples were used directly in the thermostability assay. […]

Molecule	Tm (5HT2C receptor [1]; bound to agonist SCH23390) [°C]	% of Wildtype binding (5HT2C receptor [2]) [%]	DPM1 (5HT2C receptor [2]) [DPM]	DPM2 (5HT2C receptor [2]) [DPM]	Average - BG (5HT2C receptor [2])	Average (5HT2C receptor [2])	Tm (5HT2C receptor [3]) [°C]	increase of Tm (5HT2C receptor [1]; agonist SCH23390 bound, versus parent 5HT2C) [°C]	thermostability (agonist binding at the destabilising temperature compared to wild type) (5HT2C receptor [4])	Tm (M4 muscarinic receptor) [°C]	Tm (CRF1) [°C]
B1	43.35	100	10202	9631	9208	9916.5	37.1	–	–	–	–
B2	–	19.27	2515	1897	1774.5	2206	–	4	increased agonist binding compared to the wild type receptor	–	–
B3	–	–	–	–	–	–	–	–	–	34.0	–
B4	–	–	–	–	–	–	–	–	–	–	26.8
